± gives the uncertainty stated by the source.
Assay: self-splicing fitness, log relative to wild type (ln ratio); higher = more splicing; Tetrahymena group I intron in knt gene, E. coli kanamycin selection, DiMSum; sequences stand for … in CUCUCU…GGAGGGAAAAGUUAUCAGGCAUGCACCUGGUAGCUAGUCUUUAAACCAAUAGAUUGCAUCGGUUUAAAAGGCAAGACCGUCAAAUUGCGGGAAAGGGGUCAACAGCCGUUCAGUACCAAGUCUCAGGGGAAACUUUGAGAUGGCCUUGCAAAGGGUAUGGUAAUAAGCUGACGGACAUGGUCCUAACCACGCAGCCAAGUCCUAAGUCAACAGAUCUUCUGUUGAUAUGGAUGCAGUUCACAGACUAAAUGUCGGUCGGGGAAGAUGUAUUCUUCUCAUAAGAUAUAGUCGGACCUCUCCUUAAUGGGAGCUAGCGGAUGAAGUGAUGCAACACUGGAGCCGCUGGGAACUAAUUUGUAUGCGAAAGUAUAUUGAUUAGUUUUGGAGUACUCGUGGUCG
Outline: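 A randomised library covering all eight P1ex-region intron nucleotides was built with the intron in the knt kanamycin-resistance gene on pET-22b(+) and held in E. coli BL21(DE3). Cells were grown overnight at 37°C or 30°C on LB agar, with or without 25 μg/mL kanamycin, plus 100 μg/mL carbenicillin, 50 μM IPTG and 0.2% rhamnose, and pooled colonies were amplicon-sequenced on an Illumina HiSeq 2500. DiMSum fitness is the error-weighted combination of wild-type-normalised replicate fold changes, kanamycin versus none.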

| Sequence | self-splicing fitness (ln) (30 °C) | self-splicing fitness (ln) (37 °C) |
| --- | --- | --- |
| GCGAAGCAAUAUUACGAUAG | -2.35 ± 0.14 | -1.51 ± 0.17 |
| GCUAAGCAAUAUUACGGCUC | -0.551 ± 0.092 | -0.942 ± 0.098 |
| CUAGAGCAAUAUUACGAUAG | -0.96 ± 0.1 | 0.0398 ± 0.18 |
| GUUCAGCAAUAUUACGUUUC | -0.965 ± 0.07 | -0.339 ± 0.084 |
| GCGCAGCAAUAUUACGUCGA | -0.665 ± 0.09 | 0.801 ± 0.13 |
| GAGGAGCAAUAUUACGCGAA | -2.67 ± 0.35 | -2.05 ± 0.3 |
| CGCUAGCAAUAUUACGAGGC | -3.54 ± 0.2 | -2.95 ± 0.23 |
| GGAAAGCAAUAUUACGUGUA | -1.92 ± 0.096 | -1.8 ± 0.13 |
| GAAGAGCAAUAUUACGUACC | -1.6 ± 0.2 | -1.49 ± 0.19 |
| GAGGAGCAAUAUUACGAGGU | -2.71 ± 0.24 | -3.09 ± 0.25 |
| GUCUAGCAAUAUUACGUGAG | -0.175 ± 0.075 | 0.0626 ± 0.093 |
| AGAAAGCAAUAUUACGAUCA | 0.101 ± 0.083 | 0.0881 ± 0.11 |
| CUGCAGCAAUAUUACGCCGC |  | -2.23 ± 0.45 |
| CGCCAGCAAUAUUACGCUGC | -4.16 ± 0.41 | -2.24 ± 0.28 |
| AUCAAGCAAUAUUACGUUGC | -3.84 ± 0.18 | -2 ± 0.15 |
| AGAAAGCAAUAUUACGUAUU | -2.59 ± 0.13 | -1.27 ± 0.14 |
| UUAAAGCAAUAUUACGGGAU | -2.8 ± 0.14 | -0.86 ± 0.12 |
| GUGGAGCAAUAUUACGGCGA | -0.352 ± 0.17 | -1.43 ± 0.23 |
| GGGUAGCAAUAUUACGGAUG | -1.19 ± 0.17 | -2.61 ± 0.28 |
| AAAUAGCAAUAUUACGGGGC | -3.72 ± 0.32 | -2.34 ± 0.29 |
| GGACAGCAAUAUUACGCAAU | -0.155 ± 0.13 | 0.311 ± 0.11 |
| CAACAGCAAUAUUACGAUCA | -1.6 ± 0.097 | -1.33 ± 0.12 |
| CUCAAGCAAUAUUACGACUA | -2.02 ± 0.31 | -2.64 ± 0.34 |
| AUCUAGCAAUAUUACGACCA | -0.438 ± 0.12 | -0.302 ± 0.14 |
| AUCGAGCAAUAUUACGUGUC | -3.76 ± 0.22 | -0.765 ± 0.13 |

| Sequence | self-splicing fitness (ln) (30 °C) | self-splicing fitness (ln) (37 °C) |
| --- | --- | --- |
| UGCGAGCAAUAUUACGUUUG | -3.45 ± 0.21 | -2.88 ± 0.21 |
| GUUUAGCAAUAUUACGGUGA | -1.84 ± 0.2 | -0.461 ± 0.18 |
| GACCAGCAAUAUUACGCAGU | -1.56 ± 0.067 | -0.904 ± 0.09 |
| GGGAAGCAAUAUUACGCCUG | -0.0824 ± 0.11 | -0.324 ± 0.16 |
| CAAGAGCAAUAUUACGCGUG | -4.13 ± 0.3 | -1.6 ± 0.16 |
| UGCAAGCAAUAUUACGUAUU | -3.36 ± 0.37 | -2.08 ± 0.21 |
| GUUAAGCAAUAUUACGUACA | -1.04 ± 0.11 | -0.694 ± 0.16 |
| AUACAGCAAUAUUACGCACA | -0.789 ± 0.11 | 0.62 ± 0.12 |
| AACGAGCAAUAUUACGGGCC | -4.29 ± 0.39 | -3.18 ± 0.47 |
| AAUGAGCAAUAUUACGAUCU | -0.572 ± 0.074 | -0.195 ± 0.1 |
| CCUUAGCAAUAUUACGCGUU | -3.55 ± 0.21 | -2.12 ± 0.16 |
| UCAAAGCAAUAUUACGGUAU | -4.12 ± 0.24 | -3.55 ± 0.29 |
| UUAAAGCAAUAUUACGUGAA | -1.8 ± 0.13 | -0.0245 ± 0.13 |
| AUGAAGCAAUAUUACGUUCC | -0.618 ± 0.086 | -0.0585 ± 0.11 |
| GCUUAGCAAUAUUACGCUGA | -2.77 ± 0.17 | -3.37 ± 0.26 |
| AUUCAGCAAUAUUACGGGAU | -4.6 ± 0.27 | -2.32 ± 0.2 |
| GCUAAGCAAUAUUACGGAUC | -0.406 ± 0.11 | -0.265 ± 0.17 |
| GAUAAGCAAUAUUACGAACA | -1.02 ± 0.092 | -0.468 ± 0.097 |
| CGGUAGCAAUAUUACGGAUG | -0.393 ± 0.063 | 0.221 ± 0.096 |
| CCUGAGCAAUAUUACGGCAU | -3.93 ± 0.23 | -4.08 ± 0.42 |
| UCUGAGCAAUAUUACGUUUC | -2.44 ± 0.22 | -0.767 ± 0.21 |
| AAUGAGCAAUAUUACGUGCU | -3.93 ± 0.36 | -2.44 ± 0.25 |
| UACCAGCAAUAUUACGCUGG | -3.35 ± 0.18 | -2.77 ± 0.22 |
| ACCGAGCAAUAUUACGACGG | -2.24 ± 0.2 | -0.893 ± 0.21 |
| AACGAGCAAUAUUACGCCAG | -4.01 ± 0.37 | -1.56 ± 0.32 |

| Sequence | self-splicing fitness (ln) (30 °C) | self-splicing fitness (ln) (37 °C) |
| --- | --- | --- |
| CCUCAGCAAUAUUACGUACG | -1.32 ± 0.069 | -0.131 ± 0.084 |
| GUCGAGCAAUAUUACGGUGU | -1.98 ± 0.087 | -1.14 ± 0.11 |
| UCUGAGCAAUAUUACGAGGG | -4.14 ± 0.27 | -2.5 ± 0.3 |
| ACCGAGCAAUAUUACGGCGC | -1.24 ± 0.14 | -0.396 ± 0.16 |
| GCUGAGCAAUAUUACGCAUA | -3.37 ± 0.3 | -1.82 ± 0.17 |
| AGACAGCAAUAUUACGCUCA | -0.572 ± 0.096 | 0.589 ± 0.12 |
| CGACAGCAAUAUUACGAUGG | -0.855 ± 0.072 | -0.172 ± 0.094 |
| AGGCAGCAAUAUUACGUUCA | -0.538 ± 0.08 | -0.117 ± 0.13 |
| UCUGAGCAAUAUUACGAGCA |  | -2.23 ± 0.36 |
| CAGCAGCAAUAUUACGCCCU | -1.89 ± 0.1 | 0.0797 ± 0.13 |
| GAACAGCAAUAUUACGCGCA | -0.367 ± 0.06 | 0.0257 ± 0.081 |
| AGCUAGCAAUAUUACGCCAG | -3.78 ± 0.36 | -2.27 ± 0.35 |
| CGCUAGCAAUAUUACGUGGA | -3.16 ± 0.2 | -2.33 ± 0.18 |
| GAUAAGCAAUAUUACGGACU | -0.638 ± 0.07 | -0.289 ± 0.094 |
| ACAGAGCAAUAUUACGUUCA | -2.1 ± 0.14 | -2.33 ± 0.2 |
| AAGAAGCAAUAUUACGCACA | -0.267 ± 0.082 | -0.233 ± 0.097 |
| UGUCAGCAAUAUUACGGAUA | -1.37 ± 0.1 | -0.339 ± 0.12 |
| AGAGAGCAAUAUUACGAUCC | -2.71 ± 0.24 | -1.5 ± 0.32 |
| CACGAGCAAUAUUACGGCGA | -3.28 ± 0.19 | -2.69 ± 0.26 |
| GUGGAGCAAUAUUACGGCUU | -1.6 ± 0.28 |  |
| GCUCAGCAAUAUUACGCUGA | -2.82 ± 0.35 |  |
| GGGUAGCAAUAUUACGGUUG | -2.88 ± 0.14 | -0.949 ± 0.17 |
| CGUGAGCAAUAUUACGGGGA | -3.34 ± 0.4 | -3.62 ± 0.42 |
| AGUUAGCAAUAUUACGAUUG | -3.3 ± 0.27 | -1.84 ± 0.24 |
| AAGCAGCAAUAUUACGUGGG | -3.54 ± 0.13 | -1.36 ± 0.084 |

| Sequence | self-splicing fitness (ln) (30 °C) | self-splicing fitness (ln) (37 °C) |
| --- | --- | --- |
| GUUUAGCAAUAUUACGCAAC | -3.59 ± 0.48 | -2.14 ± 0.39 |
| GAAAAGCAAUAUUACGCUUA | -2.27 ± 0.14 | -1.39 ± 0.14 |
| UAUCAGCAAUAUUACGAAAG | -1.62 ± 0.12 | -1.21 ± 0.17 |
| CCAAAGCAAUAUUACGAUCC | -3.73 ± 0.31 |  |
| AGACAGCAAUAUUACGCCUA | -1.46 ± 0.16 | -0.402 ± 0.17 |
| AUCCAGCAAUAUUACGGAAG | -1.1 ± 0.11 | -0.947 ± 0.14 |
| GAACAGCAAUAUUACGUACA | -0.915 ± 0.073 | -0.72 ± 0.082 |
| AACCAGCAAUAUUACGCGUA | -0.386 ± 0.063 | -0.313 ± 0.073 |
| GCAGAGCAAUAUUACGUGAG | -1.62 ± 0.08 | -1.65 ± 0.1 |
| AAAGAGCAAUAUUACGAUAC |  | -2.18 ± 0.41 |
| CGCCAGCAAUAUUACGCAAU | -4.2 ± 0.21 | -2.63 ± 0.22 |
| ACUUAGCAAUAUUACGAUUU | -0.382 ± 0.07 | 0.252 ± 0.092 |
| UCUAAGCAAUAUUACGUGGA | -2.82 ± 0.19 | -3.51 ± 0.39 |
| CUAUAGCAAUAUUACGGGGA | -2.58 ± 0.17 | -2.87 ± 0.31 |
| CAGCAGCAAUAUUACGUGGG | -3.53 ± 0.14 | -2.31 ± 0.11 |
| UUUCAGCAAUAUUACGUUAC | -4.82 ± 0.28 | -2.66 ± 0.16 |
| AGGGAGCAAUAUUACGUGGU |  | -3.13 ± 0.4 |
| UAGCAGCAAUAUUACGCUUU | -1.18 ± 0.12 | -0.753 ± 0.16 |
| AGGCAGCAAUAUUACGUGUG | -2.98 ± 0.11 | -1.44 ± 0.096 |
| CGAAAGCAAUAUUACGAAGA | -2.12 ± 0.16 | -0.849 ± 0.13 |
| UUCUAGCAAUAUUACGUUAU | -1.76 ± 0.26 | -2.14 ± 0.27 |
| UGGUAGCAAUAUUACGACAU | -1.39 ± 0.015 | -0.583 ± 0.034 |
